Results published in paper PMC2116342 (The Journal of Cell Biology, 1990).
Values belong to the molecule of their own block, whether it stands above or below them.

Experiments:
[1] = target: L-desmin (desmin lacking its carboxy-terminal 27 residues) (chicken); test: cross-linking
[2] = target: the molecule itself; test: cross-linking

stoichiometry N [1]: 4
Molecule: L-desmin (desmin lacking its carboxy-terminal 27 residues) (domain or fragment)

B1: desmin (intact chicken gizzard desmin) (natural protein, UniProt P02542 1-464, looked up)
chain: MSQSYSSSQRVSSYRRTFGGGTSPVFPRASFGSRGSGSSVTSRVYQVSRTSAVPTLSTFRTTRVTPLRTYQSAYQGAGELLDFSLADAMNQEFLQTRTNEKVELQELNDRFANYIEKVRFLEQQNALMVAEVNRLRGKEPTRVAEMYEEELRELRRQVDALTGQRARVEVERDNLLDDLQKLKQRLQEEIQLKEEAENNLAAFRADVDAATLARIDLERRIESLQEEIAFLKKVHEEEIRELQAQLQEQHIQVEMDISKPDLTAALRDIRAQYESIAAKNIAEAEEWYKSKVSDLTQAANKNNDALRQAKQEMLEYRHQIQSYTCEIDALKGTNDSLMRQMREMEERFAGEAGGYQDTIARLEEEIRHLKDEMARHLREYQDLLNVKMALDVEIATYRKLLEGEENRISIPMHQTFASALNFRETSPDQRGSEVHTKKTVMIKTIETRDGEVVSEATQQQHEVL
stoichiometry N [2]: 4
